Measurements from publication PMC6363992.

Columns and labels:
[1] = biological target: BTV1 VP5 H385A mutant, S-tagged recombinant protein (Bluetongue virus serotype 1 (BTV1)); assay: SDS-PAGE without reduction and heating, Western blot
[2] = biological target: BTV1 VP5 H384-6A triple mutant, S-tagged recombinant protein (Bluetongue virus serotype 1 (BTV1)); assay: as above
[3] = biological target: BTV1 VP5 anchoring domain (ANC) polypeptide, His-tagged (Bluetongue virus serotype 1 (BTV1)); assay: SDS-PAGE without reduction and heating, Coomassie staining
[4] = biological target: BTV1 VP5, wild-type, S-tagged recombinant protein (Bluetongue virus serotype 1 (BTV1)); assay: SDS-PAGE without reduction and heating, Western blot

Q: How did the percent trimer [1] turn out when “BTV1 VP5 H385A mutant, S-tagged recombinant protein (natural protein)” was run?
A: 25%

Q: What about the stoichiometry N [1] of the same substance?
A: 3

Q: With “BTV1 VP5 H384-6A triple mutant, S-tagged recombinant protein (natural protein)” as the substance, how does the percent trimer [2] read?
A: 25%

Q: And the stoichiometry N [2]?
A: 3

Q: “BTV1 VP5 anchoring domain (ANC) polypeptide, His-tagged (domain or fragment)” was tested. Which percent trimer [3] did it give?
A: 30%

Q: And the stoichiometry N [3]?
A: 3

Q: For “BTV1 VP5, wild-type, S-tagged recombinant protein (natural protein)”, which percent trimer [4] is on record?
A: 25%

Q: What about the stoichiometry N [4] of the same substance?
A: 3
